# Results published in US20180022822A1, “NOVEL ANTI-FIBROBLAST ACTIVATION PROTEIN (FAP) BINDING AGENTS AND USES THEREOF” (Mabimmune Diagnostics AG, priority 2016, published 2018).
# B1: NI-206.82C2: human-derived recombinant anti-FAP antibody; VH SEQ ID NO: 2 or 4 (PIMC), VL SEQ ID NO: 6 (antibody, V domains shown)
# VH: QVQLQQSGPGLVKPSQTLSLTCAISGDSVSSNSVTWNWIRQSPSRGLEWLGRTYYRSKWYNDYAVSVKGRITINPDTSKNQFYLQLKSVTPEDAAVYYCARDSSILYGDYWGQGTLVTVSS
# VL: QAVLTQPSSLSASPGASASLTCTLPSGINVGTYRIFWFQQKPGSPPQYLLSYKSDSDNHQGSGVPSRFSGSKDASANAGILLISGLQSEDEADYYCMIWHSSAWVFGGGTKLTVL
# Key:
# [1] = system: obstructive human coronary thrombi and aortic atherosclerotic plaque; test: confocal immunofluorescence on human coronary thrombi and aortic atherosclerotic plaque; conditions: Cy3 labelled antibody
# Procedure: NI-206.82C2 was labelled with Cyanine 3 for fluorescent imaging (Cy3 conjugation kit: Innova Biosciences, 340-0030) and antibody labelling was validated using a spectophotometer. Cryosections from myocardial infarction causing obstructive human coronary thrombi (FIG. 14, A) and human aortic atherosclerotic plaque (FIG. 14, B) were fixed for 5 minutes in ice cold acetone and allowed to dry for 10 minutes before washing in PBS. The sections were then incubated for 1 hr at room temperature in 5% BSA in PBS, and then incubated with Cyanine 3 labelled antibodies overnight at 4° C., before washing three times in PBS before incubation with DAPI at 0.5 μg/mL. Sections were then washed three additional times in PBS and mounted in Lisbeth's mounting medium before imaging on a SP8 confocal microscope (Leica Microsystems).
# [2] = system: human breast cancer tissue sections; test: immunohistochemistry on human breast cancer tissue sections; conditions: chimeric form with murine constant domain, 10 μg/mL, DAB
# Procedure: Human breast cancer tissue sections were allowed to dry for 10 min at room temperature, and then fixed for 15 minutes in 4% paraformaldahyde, followed by washing three times 5 minutes in PBS. Slides were then incubated for 5 min in 0.3% H2O2 in PBS to block endogenous peroxidase activity, and subsequently washed 3 times 5 min in PBS. Endogenous biotin was then blocked using the Biotin-Blocking System (DAKO X0590), followed by times washing with PBS. Blocking of unspecific antibody binding and permeabilization of the tissue section was performed using blocking buffer (5% goat serum, 5% horse serum, 0.3M glycine, 5% BSA, and 0.5% Triton X100 in PBS). Tissue sections were then stained with a recombinantly engineered chimeric form of NI-206.82C2 with a murine constant domain and the human variable domain of the original antibody and a matched isotype control (43A11) at 10 μg/mL in permeabilization buffer overnight at 4° C. Following three PBS washing steps, the sections were incubated with a biotinylated goat anti-mouse antibody for 1 h at room temperature. For amplifying the target antigen the VECTASTAIN ABC kit (Vector Labs) was used, followed by development with 3,3′-diaminobenzidine (DAB) and counterstained with Mayer's haematoxylin blue. […]
# [3] = system: arterial occlusion (thrombosis); test: carotid artery photochemical injury-induced thrombosis model; type: in vivo, mouse
# Procedure: The carotid artery photochemical injury-induced thrombosis model begins with anesthesia by intraperitoneal injection of sodium pentobarbital (87 mg/kg body weight). After slight tail warming (using warm water) rose bengal (10 mg/mL in PBS) is injected into the tail vein in a volume of 0.12 mL at a concentration of 50 mg/kg. Mice will then be secured in a supine position (with the head pointing towards the operator) and placed on a heating pad (rectal temperature will be monitored) under a dissecting microscope. Following a (2.5-3 cm) midline cervical incision and a small incision of the larynx to provide a tracheostoma, by blunt preparation the right common carotid artery is exposed and cleared of connective tissue. A surgical stitch is employed to fix the sternocleidomastoid muscle aside to the right and increase access area to the right carotid artery. Care must be taken to avoid excessive vessel manipulation during procedures. Curved-tip tweezers will be employed to slide under the vessel (from the left side) and gently lift it so as to place the probe under and around it. The probe will be placed as proximal as the access area allows it to be and its connection wire should then be placed on a micromanipulator to fine-adjust its position. (The probe should be perfectly aligned with the vessel so as not to cause any resistance to flow). Little surgical ultrasonic gel should be applied on top of the probe to increase signal quality. Within 6 minutes of Rose Bengal injection, a laser beam will be aimed at the carotid artery and kept at fixed distance of 6 cm for 60 minutes. Flow will be measured during these 60 minutes and for further 60 minutes (max time elapse 120 minutes) or until occlusion occurs. Occlusion is considered as a constant (≧1 min) flow below 0.1 ml/min. Mice are euthanized by an overdose of pentobarbital immediately (25 mg) after the occlusion analysis is completed.
# Mice will be placed on a heating pad, to avoid a drop of body temperature. Heart rate (probe measuring the blood flow will also measure the heart rate) will be monitored during the surgery. Anethesia depth will be checked before starting the surgery and during the experiment by pedal withdrawal reflex (animals hind limb will be extended and the interdigital webbing of the foot will firmly pinched by the use of an atraumatic forceps; if there is no withdrawal reaction to the toe pinch, animals will be judged deep enough).
# The chosen dose of anesthesia sodium pentobarbital (87 mg/kg body weight) is sufficient to keep the animal in deep anesthesia for the whole duration of the experiment. No second dosing is necessary. […]
molecule,measurement,setting,value
B1,binding to human coronary thrombi and aortic atherosclerotic plaque,[1],binds
same,staining of human ductal carcinoma in-situ tissue,[2],Positive staining
same,staining of human invasive ductal carcinoma tissue,[2],Positive staining
same,occlusion time,"[3]; 20 mg/kg i.v. versus vehicle control, n=4",significantly prolonged
same,median time to occlusion,"[3]; 2, 7 and 20 mg/kg versus PBS and 43A11",dose-dependent increase
same,Log-rank hazard ratio of arterial occlusion,[3]; versus 43A11 isotype control,0.04
same,dose at which significant increase in median time to occlusion starts,[3]; versus PBS and 43A11 at 20 mg/kg,2 mg/kg
